Positions count from the first letter of the chain named. In names and notes the source's numbering stands.
What was measured:
[1] = target: T1, human MSR1 extracellular domain expressed with a N-terminal nonahistidine tag (His9-hMSR1); R&D Systems, Cat … (human, UniProt P21757 77-451); test: SPR Biacore T200, 25 C, antibody captured by anti-human Fc, His9-hMSR1 injected;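 further: running buffer HBS-ET pH 7.4, rates from sensorgrams fitted to a 1:1 model including mass transport limitation, KD and half-life derived from the kinetic constants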
T1 construct: extracellular domain; Bought reagent; also called His-hMSR1; 9xHis-hMSR1
T1 sequence: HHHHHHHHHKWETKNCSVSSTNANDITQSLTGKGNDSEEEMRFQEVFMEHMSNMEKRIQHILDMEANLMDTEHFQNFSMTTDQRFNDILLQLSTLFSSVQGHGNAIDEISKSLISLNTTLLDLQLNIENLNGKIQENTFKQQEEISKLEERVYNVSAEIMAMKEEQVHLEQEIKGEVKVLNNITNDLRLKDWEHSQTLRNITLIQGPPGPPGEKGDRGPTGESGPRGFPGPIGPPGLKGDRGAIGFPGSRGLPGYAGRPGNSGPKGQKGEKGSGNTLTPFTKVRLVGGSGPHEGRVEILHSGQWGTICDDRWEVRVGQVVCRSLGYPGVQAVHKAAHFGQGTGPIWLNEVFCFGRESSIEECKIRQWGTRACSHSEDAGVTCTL
Procedure: All binding studies were performed in 10 mM HEPES, 300 mM NaCl, 3 mM EDTA, and 0.05% v/v Surfactant Tween-20, pH 7.4 (HBS-ET) running buffer at 25° C.
(§1) The association rate (kₐ) and dissociation rate (kd) were determined by fitting the real-time binding sensorgrams to a 1:1 binding model with mass transport limitation using Scrubber 2.0c curve-fitting software. Binding dissociation equilibrium constant (KD) and dissociative half-life (t½) were calculated from the kinetic rates as:

[2] = target: T2, full length human MSR1 with a C-terminal Myc tag, on HEK293.Myc.hMSR1 cells (human, UniProt P21757 1-451); test: cell-based or functional assay; on % Inhibition of Dil-Acetylated LDL uptake: test concentration or dose not given here; on % Inhibition of Dil-Oxidized LDL uptake: test concentration or dose not given here
T2 sequence (looked up): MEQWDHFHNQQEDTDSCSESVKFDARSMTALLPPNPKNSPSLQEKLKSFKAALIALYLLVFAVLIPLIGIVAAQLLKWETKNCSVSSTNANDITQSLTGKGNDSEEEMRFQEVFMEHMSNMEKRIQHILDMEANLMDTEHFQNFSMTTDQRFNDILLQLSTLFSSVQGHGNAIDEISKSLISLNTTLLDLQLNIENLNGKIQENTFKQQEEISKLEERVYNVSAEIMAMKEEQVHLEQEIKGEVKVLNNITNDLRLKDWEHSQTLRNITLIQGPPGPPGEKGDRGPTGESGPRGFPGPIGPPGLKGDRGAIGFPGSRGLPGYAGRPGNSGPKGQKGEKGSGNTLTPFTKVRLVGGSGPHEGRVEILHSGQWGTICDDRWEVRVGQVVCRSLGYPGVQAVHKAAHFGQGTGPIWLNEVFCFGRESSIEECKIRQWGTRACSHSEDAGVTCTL

[3] = target: T3, mouse MSR1 on RAW264.7 cells (mouse, UniProt P30204 1-458); test: flow cytometry, RAW264.7 cells
T3 construct: whole, on cells; also called MSR1 positive RAW264.7 cells
T3 sequence (looked up): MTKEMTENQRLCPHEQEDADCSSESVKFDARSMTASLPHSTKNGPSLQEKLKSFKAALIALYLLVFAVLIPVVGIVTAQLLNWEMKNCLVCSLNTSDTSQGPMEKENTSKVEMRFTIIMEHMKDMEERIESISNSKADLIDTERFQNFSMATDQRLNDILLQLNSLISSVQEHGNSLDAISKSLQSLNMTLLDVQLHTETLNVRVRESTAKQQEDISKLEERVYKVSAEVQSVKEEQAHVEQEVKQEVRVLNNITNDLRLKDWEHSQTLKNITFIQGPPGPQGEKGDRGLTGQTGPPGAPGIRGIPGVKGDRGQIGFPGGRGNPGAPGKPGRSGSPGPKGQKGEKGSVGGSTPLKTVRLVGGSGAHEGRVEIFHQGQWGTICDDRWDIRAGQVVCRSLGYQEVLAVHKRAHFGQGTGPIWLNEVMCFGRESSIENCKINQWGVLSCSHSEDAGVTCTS
Procedure: To block binding to Fc receptors, RAW264.7 cells were incubated for 30 minutes at 4° C. with 500 pg/mL mouse IgG (Jackson ImmunoResearch, Cat #015-000-003) diluted in staining buffer, while B16F10.9 cells remained in staining buffer. […] The signal to noise (S/N) was determined by calculating the ratio of the anti-MSR1 antibodies or the control antibodies MFI to the unstained sample MFI (Table 11).

[4] = target: T4, human MSR1 extracellular domain expressed with a N-terminal nonahistidine tag (His9-hMSR1); R&D Systems, Cat … (human, UniProt P21757 77-451); test: SPR Biacore, 37 C, antibody captured
T4 construct: extracellular domain; also called His-hMSR1; 9xHis-hMSR1; not shown: N-terminal nonahistidine tag
T4 sequence (looked up): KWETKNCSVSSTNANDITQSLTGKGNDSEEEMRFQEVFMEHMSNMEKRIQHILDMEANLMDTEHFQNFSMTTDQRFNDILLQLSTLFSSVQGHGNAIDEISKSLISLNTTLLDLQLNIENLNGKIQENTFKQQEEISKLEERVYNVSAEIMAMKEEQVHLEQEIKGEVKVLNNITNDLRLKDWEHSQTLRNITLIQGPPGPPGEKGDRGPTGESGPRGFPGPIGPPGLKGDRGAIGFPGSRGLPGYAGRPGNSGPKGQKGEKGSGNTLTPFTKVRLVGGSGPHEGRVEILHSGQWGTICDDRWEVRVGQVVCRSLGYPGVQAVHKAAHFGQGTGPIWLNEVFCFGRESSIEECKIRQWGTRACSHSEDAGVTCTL

[5] = target: T5, monkey MSR1 extracellular domain expressed with a N-terminal hexahistidine-myc-myc tag (HMM-mfMSR1) (monkey (Macaca fascicularis)); test: SPR Biacore, 37 C, antibody captured
T5 chain: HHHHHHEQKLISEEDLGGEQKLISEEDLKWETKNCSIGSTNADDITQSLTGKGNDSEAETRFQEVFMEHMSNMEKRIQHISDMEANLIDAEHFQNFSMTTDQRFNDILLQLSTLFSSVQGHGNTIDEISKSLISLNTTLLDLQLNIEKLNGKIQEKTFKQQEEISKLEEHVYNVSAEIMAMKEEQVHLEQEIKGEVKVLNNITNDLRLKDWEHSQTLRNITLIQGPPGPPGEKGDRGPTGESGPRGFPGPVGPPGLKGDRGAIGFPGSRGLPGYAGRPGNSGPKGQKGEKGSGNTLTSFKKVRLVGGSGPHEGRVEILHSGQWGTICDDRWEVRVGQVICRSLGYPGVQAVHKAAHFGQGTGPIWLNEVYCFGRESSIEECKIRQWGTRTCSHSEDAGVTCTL

[6] = target: T4, human MSR1 extracellular domain …; test: SPR Biacore, 25 C, antibody captured;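 further: rates from 1:1 fit with mass transport limitation of real-time sensorgrams, HEPES-buffered saline with EDTA and Tween-20 at pH 7.4, KD and t½ derived from the kinetic rates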
Procedure: (§2) Binding affinities and kinetic constants of human anti-MSR1 antibodies for different MSR1 reagents were determined by real-time surface plasmon resonance (Biacore 4000). All binding studies were performed in 10 mM HEPES, 150 mM NaCl, 3 mM EDTA, and 0.05% v/v Surfactant Tween-20, pH 7.4 (HBS-ET) running buffer at 25° C. and 37° C.
as §1

[7] = target: T5, monkey MSR1 extracellular domain …; test: SPR Biacore, 25 C, antibody captured;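 further: rates from 1:1 fit with mass transport limitation of real-time sensorgrams, HEPES-buffered saline with EDTA and Tween-20 at pH 7.4, KD and t½ derived from the kinetic rates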
Procedure: as §2, §1

B1: H1H27766P-N297Q-LP1 (antibody, human IgG1, V domains shown)
VH: EVQLVESGGGLVQPGGSLRLSCAASGFTFSSFAMSWVRQAPGKELEWVSSISGRGGSTYYADSVRGRFTISRDNSKITLYLQMNSLRAEDTAVYYCAKDIVFRYTSSAYWYFDLWGRGTLVTVSS
VL: not shown
modifications: LXR agonist linker-payload LP1 clicked to azido-PEG3-amine on Q295 and Q297 (EU) of the heavy chain constant region
notes: antibody-drug conjugate; human IgG1 Fc with N297Q (EU); also called H1H27766P2-LP1
[1]
  Kd: 0.0649 nM
  koff: 2.7e-05 s⁻¹
  kon: 416000 M⁻¹ s⁻¹
  t½: 427 min

B2: H2aM21227N (antibody, mouse IgG2a, V domains shown)
VH: QVQLVQSGAEVKKPGASVKVSCKVSGYTLTELSIHWVRQVPGKGLEWMGGFDPEEGETIFAQEFRDRVTLTEDTSPDTAYMELSSLKSEDAAVYYCTTPRYCNNGICYDYWGQGTLVTVSS
VL: DIQMTQSPSSLSASVGDRVTITCRASQSISNYLNWYQQKPGKAPKLLIYTASSLQSGVPSRFSGSGSGTDFTLTISSLQTEDFATYYCQQSYSNFPITFGQGTRLEIKR
[2]
  % Inhibition of Dil-Acetylated LDL uptake: 62%
  % Inhibition of Dil-Oxidized LDL uptake: 90%
  IC50 of Dil-Acetylated LDL uptake inhibition: 3.7 nM
  IC50 of Dil-Oxidized LDL uptake inhibition: 3.1 nM

B3: H1H21231N-N297Q (antibody, human IgG1, V domains shown)
VH: EVQLVESGGGLVQPGGSLRLSCAASGFTFSDHYMDWVRQAPGKGLEWVGRTRNKANSHTTEYTASVTGRFTISRDDSRNSLYLQMNSLKTEDTAVYYCVRAGIIGTLFDYWGQGTLVTVSS
VL: B2 VL with S7F, N31S, Y32F, Y36F, L46F, T50A, T80P, N94S, F95P
notes: human IgG1 Fc with N297Q point mutation
[3]
  MFI: 3580 MFI
  S/N (MFI over unstained MFI): 1

B4: H1M21231N (antibody, V domains shown)
VH: B3 VH
VL: B2 VL with S7F, N31S, Y32F, Y36F, L46F, T50A, T80P, N94S, F95P
[2]
  % Inhibition of Dil-Acetylated LDL uptake: 50%
  % Inhibition of Dil-Oxidized LDL uptake: 79%
  IC50 of Dil-Acetylated LDL uptake inhibition: > 20 nM
  IC50 of Dil-Oxidized LDL uptake inhibition: 3.7 nM

B5: H1H27761P-N297Q (antibody, V domains shown)
VH: EVQLVESGGDLVQPGGSLRLSCSASGFTFNIYAMSWVRQAPGKGLEWVSGISGSGGSTYYADSVKGRFTISRDNSKNTLYFQMNSLRVEDTAVYYCAKKISSSSYYYYAMDVWGQGTTVTVSS
VL: not shown
notes: Human IgG1 Fc with N297Q; tied by the numerical identifier; also called H1H27761P2-N297Q; H1H27761P2
[4]
  Kd: 3.26 nM
  koff: 0.00222 s⁻¹
  kon: 681000 M⁻¹ s⁻¹
  t½: 5 min
[5]
  Kd: 2.32 nM
  koff: 0.00214 s⁻¹
  kon: 920000 M⁻¹ s⁻¹
  t½: 5 min
[6]
  Kd: 1.63 nM
  koff: 0.00051 s⁻¹
  kon: 312000 M⁻¹ s⁻¹
  t½: 23 min
[7]
  Kd: 1.88 nM
  koff: 0.000597 s⁻¹
  kon: 318000 M⁻¹ s⁻¹
  t½: 19 min

B6: H2aM21235N (antibody, mouse IgG2a, V domains shown)
VH: B3 VH with H58Y, T63A, T67S, R78K, V99T
VL: DIQMTQSPSSLSASVGDRVTITCRASQIIGRYLNWFQQKPGKVPKLLIYAASSLQRGVPSRFSGSGSGTDFTLTISSLQPEDFATYYCQQSYNTPPITFGQGTRLEIKR
[2]
  % Inhibition of Dil-Acetylated LDL uptake: 24%
  % Inhibition of Dil-Oxidized LDL uptake: 64%
  IC50 of Dil-Acetylated LDL uptake inhibition: > 100 nM

B7: H1xH29273P2 (antibody, V domains shown)
VH: QVQLVESGGGVVQSGRSLRLSCAAAGFTFSNYGMHWVRQAPGKGLEWVALMSFDGSDKYYADSVKGRFTISRDNSKNTLYLQMNSLRAEDTALYYCAKGYDFWSGYWDYWGQGTLVTVSS
VL: not shown
notes: the prefix H1xH is not explained; captured by anti-human Fc
[1]
  Kd: 93 nM
  koff: 0.00763 s⁻¹
  kon: 82000 M⁻¹ s⁻¹
  t½: 1.5 min

B8: H1H27747P-N297Q (antibody, human IgG1, V domains shown)
VH: QVQLVESGGAVVQPGRSLRLSCAASGFTFSYYGMHWVRQAPGKGLEWVAVISYDGSKKYYADSVKGRFTISRDNSKNTLYLQMNSLRAEDTAVYYCAKDLTVDFYYGMDVWGQGTTVTVSS
VL: DIQMTQSPSSVSASVGDRVTITCRASQGISSWLAWYQQKPGKAPKLLIYATSSLQSGAPSRFSGSGSGTDFTLTISSLQPEDFATYFCQQANSFPYTFGQGTKLEIKR
notes: human IgG1 Fc with N297Q
[3]
  MFI: 3630 MFI
  S/N (MFI over unstained MFI): 1

B9: H1xH29282P2 (antibody, V domains shown)
VH: EVQLVESGGGLVQPGGSLRLSCAASGFTFSTYAMSWVRQAPGKGLEWVSTISGRSDITYFADSVKGRFTVSRDNSKTTLYLQMNSLRAEDTAVYYCATDDDLPLDYWGQGTLVTVSS
VL: not shown
notes: as for B7
[1]
  Kd: 43.7 nM
  koff: 0.00362 s⁻¹
  kon: 82800 M⁻¹ s⁻¹
  t½: 3.2 min

B10: H2bM21234N (antibody, V domains shown)
VH: QVQLQESGPGLVKPSETLSLTCTVTGGSISRNYWSWIRQPPGKGLEWIGYIYYSGSIDYNPSLKSRVTISVDTSKNQFSLKLSSMTAADTAVYYCARDRWNWKYGMDVWGQGTTVIVSS
VL: EIVLTQSPGTLSLSPGERATLSCRASQTVRNNYLAWYHQKPGQAPRLLIYGASSRATGIPDRFSGSGSGTDFTLTISRLEPEDFTVYYCHQYGNSPWTFGQGTKMEIKR
[2]
  % Inhibition of Dil-Acetylated LDL uptake: 19%
  % Inhibition of Dil-Oxidized LDL uptake: 61%
  IC50 of Dil-Acetylated LDL uptake inhibition: 1.8 nM
  IC50 of Dil-Oxidized LDL uptake inhibition: 4.5 nM

B11: H1H27736P-N297Q (antibody, human IgG1, V domains shown)
VH: EVQLVESGGGLVQPGGSLRLSCAASGFTFSSYAMSWVRQAPGKGLEWVSSISGSGDSTFYTDSVKGRFTISRDISKNTLYLQMNSLRAEDTAVYYCAKDRLLWFGDLISPFHYWGQGTLVTVSS
VL: EIVLTQSPGTLSLSPGERATLSCRASQSVSNIYLAWYQQKPAQAPRLLIYGASSRATGIPDRFSVSGSGTDFTLTISRLEPEDFAVYYCQQYGSSPRTFGQGTKVEIKR
notes: human IgG1 Fc with N297Q
[3]
  MFI: 3550 MFI
  S/N (MFI over unstained MFI): 1

B12: H1H27749P-N297Q (antibody, human IgG1, V domains shown)
VH: QVQLQESGPGLVKPSETLSLTCTVSDGSISSYYWSWIRQPPGRGLEWIGFIYYSGSTSYNPSLKSRVTISVDTSMSQFSLKLRSVTAADTAVYYCARGSPFDYWGPGTLVTVSS
VL: EIVLTQSPGTLSLSPGERATLSCRASQSVSSSYLAWYQQRPGQAPSLLISGASRRATGIPDRFSGSGSGTDFTLTIRRLEPEDFAMYYCQQYGSSPPTFGGGTKVEIKR
notes: human IgG1 Fc with N297Q
[3]
  MFI: 3790 MFI
  S/N (MFI over unstained MFI): 1

Reference: patent US20190367631A1 (Regeneron, published 2019)
